In patent publication US20210238260:
Numbering of substitutions follows the chain as printed. Names and notes keep the numbering of the source.

B1: FIXa Y155F/R318Y/R338E/T343R/E410N (protein)
chain 1: YNSGKLEEFVQGNLERECMEEKCSFEEAREVFENTERTTEFWKQYVDGDQCESNPCLNGGSCKDDINSYECWCPFGFEGKNCELDVTCNIKNGRCEQFCKNSADNKVVCSCTEGYRLAENQKSCEPAVPFPCGRVSVSQTSKLTR
chain 2: VVGGEDAKPGQFPWQVVLNGKVDAFCGGSIVNEKWIVTAAHCVETGVKITVVAGEHNIEETEHTEQKRNVIRIIPHHNYNAAINKYNHDIALLELDEPLVLNSYVTPICIADKEYTNIFLKFGSGYVSGWGRVFHKGYSALVLQYLRVPLVDRATCLESTKFRIYNNMFCAGFHEGGRDSCQGDSGGPHVTEVEGTSFLTGIISWGEECAMKGKYGIYTKVSRYVNWIKNKTKLT
B2: FIXa Y155F/R318Y/T343R/R403E/E410N (protein)
chain 1: B1 chain 1
chain 2: B1 chain 2 with E158R, R223E
B3: FIXa R338E/T343R/R403E/E410N (protein)
chain 1: B1 chain 1
chain 2: B1 chain 2 with Y138R, R223E
B4: FIXa-R338E/T343R/E410N (protein)
chain 1: B1 chain 1
chain 2: B1 chain 2 with Y138R
B5: FIXa-K228N/R338E/R403E (mature FIX numbering) (protein)
chain 1: B1 chain 1
chain 2: B1 chain 2 with K48N, Y138R, R163T, R223E, N230E
B6: FIXa-R318Y/R338E/E410N (mature FIX numbering) (protein)
chain 1: B1 chain 1
chain 2: B1 chain 2 with R163T
B7: FIXa-D104N/K106S/R318Y/R338E/E410N (mature FIX numbering) (protein)
chain 1: B1 chain 1 with D104N, K106S
chain 2: B1 chain 2 with R163T
B8: FIXa-Y155F/R318Y/R338E/E410N (mature FIX numbering) (protein)
chain 1: B1 chain 1
chain 2: B1 chain 2 with R163T
B9: FIXa-K228N/R318Y/E410N (mature FIX numbering) (protein)
chain 1: B1 chain 1
chain 2: B1 chain 2 with K48N, E158R, R163T
B10: FIXa-R318Y/R403E/E410N (mature FIX numbering) (protein)
chain 1: B1 chain 1
chain 2: B1 chain 2 with E158R, R163T, R223E
B11: FIXa-R318Y/R338E/R403E/E410N (mature FIX numbering) (protein)
chain 1: B1 chain 1
chain 2: B1 chain 2 with R163T, R223E
B12: FIXa-A103N/N105S/R318Y/R338E/R403E/E410N (mature FIX numbering) (protein)
chain 1: B1 chain 1 with A103N, N105S
chain 2: B1 chain 2 with R163T, R223E
B13: FIXa-D104N/K106S/R318Y/R338E/R403E/E410N (mature FIX numbering) (protein)
chain 1: B1 chain 1 with D104N, K106S
chain 2: B1 chain 2 with R163T, R223E
B14: FIXa-Y155F/R318Y/R338E/R403E/E410N (mature FIX numbering) (protein)
chain 1: B1 chain 1
chain 2: B1 chain 2 with R163T, R223E
B15: FIXa-A103N/N105S/Y155F/R318Y/R338E/R403E/E410N (mature FIX numbering) (protein)
chain 1: B1 chain 1 with A103N, N105S
chain 2: B1 chain 2 with R163T, R223E

Molecular target: Factor X, P00742
Sequence (P00742 whole entry, looked up): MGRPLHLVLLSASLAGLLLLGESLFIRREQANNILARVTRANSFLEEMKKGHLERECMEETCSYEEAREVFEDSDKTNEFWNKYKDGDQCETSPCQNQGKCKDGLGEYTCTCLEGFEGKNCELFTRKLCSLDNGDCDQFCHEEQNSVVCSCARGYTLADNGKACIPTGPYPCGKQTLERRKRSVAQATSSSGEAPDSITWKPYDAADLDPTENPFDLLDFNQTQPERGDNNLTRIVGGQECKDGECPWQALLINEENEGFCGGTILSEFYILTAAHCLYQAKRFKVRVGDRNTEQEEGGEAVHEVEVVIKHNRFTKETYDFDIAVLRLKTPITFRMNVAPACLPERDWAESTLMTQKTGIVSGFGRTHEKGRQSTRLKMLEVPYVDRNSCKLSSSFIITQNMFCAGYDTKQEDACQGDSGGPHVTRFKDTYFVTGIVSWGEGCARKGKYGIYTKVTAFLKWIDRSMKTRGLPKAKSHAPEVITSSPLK

Protein	KM (FX activation by FIXa in Xase complex with FVIIIa, PC/PS vesicles, Ca2+)	KM	% of WT kcat/KM	kcat/KM
B1	25.6 nM			
B2	34 nM			
B3	34.7 nM			
B4		35.5 nM		
B5			108%	4.8e+07 M⁻¹ s⁻¹
B6			770%	3.4e+08 M⁻¹ s⁻¹
B7			581%	2.6e+08 M⁻¹ s⁻¹
B8			835%	3.7e+08 M⁻¹ s⁻¹
B9			272%	1.2e+08 M⁻¹ s⁻¹
B10			59%	2.7e+07 M⁻¹ s⁻¹
B11			262%	1.2e+08 M⁻¹ s⁻¹
B12			327%	1.5e+08 M⁻¹ s⁻¹
B13			377%	1.7e+08 M⁻¹ s⁻¹
B14			418%	1.9e+08 M⁻¹ s⁻¹
B15			283%	1.3e+08 M⁻¹ s⁻¹
